Results: patent WO2006085967A2

Columns and labels:
[1] = target: extracellular region of human F158 FcγRIIIa with C-terminal 6x His-tag and GST-tag (human) (UniProt P08637); test: SPR (Table 3, not reproduced); receptor immobilized, antibody flowed
[2] = target: T1, extracellular region of human FcγRIIIa, allotype not stated where cited (His/GST-tagged) (human) (UniProt P08637); test: AlphaScreen, Figure 15; fold vs WT for FcγRIIIa divided by fold vs WT for FcγRIIb
[3] = target: T1, extracellular region of human FcγRIIIa, allotype not given (His/GST-tagged) (human); test: AlphaScreen competition, Figure 15
[4] = target: human FcγRIIIa on PBMCs expressing heterozygous V158/F158 FcγRIIIa (human) (UniProt P08637); test: cell-based or functional assay
[5] = target: extracellular region of human V158 FcγRIIIa with C-terminal 6x His-tag and GST-tag (human) (UniProt P08637); test: SPR (Table 3, not reproduced); receptor immobilized, antibody flowed
[6] = target: extracellular region of human F158 FcγRIIIa with C-terminal 6x His-tag and GST-tag (human) (UniProt P08637); test: SPR; receptor immobilized, antibody flowed

Chain of human FcγRIIIa on PBMCs expressing heterozygous V158/F158 FcγRIIIa (human) (P08637 17-254): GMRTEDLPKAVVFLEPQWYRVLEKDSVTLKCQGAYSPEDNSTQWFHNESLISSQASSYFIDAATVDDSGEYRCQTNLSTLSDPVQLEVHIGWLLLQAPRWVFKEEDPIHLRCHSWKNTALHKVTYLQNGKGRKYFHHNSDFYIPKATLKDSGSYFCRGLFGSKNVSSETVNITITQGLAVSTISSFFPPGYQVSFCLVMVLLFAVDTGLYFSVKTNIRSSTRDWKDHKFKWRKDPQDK
Chain of extracellular region of human F158 FcγRIIIa with C-terminal 6x His-tag and GST-tag (human) (P08637 17-208): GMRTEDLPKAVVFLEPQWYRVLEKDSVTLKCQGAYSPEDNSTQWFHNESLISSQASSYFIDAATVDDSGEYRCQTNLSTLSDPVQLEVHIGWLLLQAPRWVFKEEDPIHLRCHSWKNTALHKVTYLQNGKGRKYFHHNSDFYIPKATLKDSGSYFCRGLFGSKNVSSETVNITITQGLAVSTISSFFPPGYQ
T1 sequence (P08637 17-208): as above
Chain of extracellular region of human V158 FcγRIIIa with C-terminal 6x His-tag and GST-tag (human) (P08637 17-208 F176V): as the sequence (P08637 17-208) above, with F160V counted along it

Substance	fold improvement over WT [1] [fold]	FcγRIIIa-fold (fold affinity relative to WT) [3] [fold]	ADCC log(EC50), DoHH-2 target cells [4]	fold enhancement in ADCC over WT alemtuzumab [4] [fold]	fold improvement over WT [5] [fold]	also measured
I332E alemtuzumab (antibody)	10.1					
S239D/A330L/I332E Fc variant antibody (Figure 15; antibody context not stated)		139				FcγRIIIa-fold:FcγRIIb-fold ratio [2]: 18
S239D/I332E Fc variant antibody (Figure 15; antibody context not stated)		192				
S239D/I332E alemtuzumab (antibody)			0.49	3.3		
S298A/E333A/K334A alemtuzumab (antibody)	4.7				1.7	
V264I/I332E alemtuzumab (antibody)	14		0.6	2.5	4	Kd [6]: 52 nM
